Assay results as given in article PMC5985514.
Where two headings read alike, the source gives them in different places.

Assays:
Test in all cases: NMR titration
[1] = target: 3-fluorotyrosine labeled A34F variant of the B1 domain of protein G (T2Q background)
[2] = target: 3-fluorotyrosine labeled A34F variant of the B1 domain of protein G (T2Q background); remark: listed apart in the source
[3] = target: 3-fluorotyrosine labeled A34F variant of the B1 domain of protein G (T2Q background); remark: listed apart in the source
[4] = target: 3-fluorotyrosine labeled A34F variant of the B1 domain of protein G (T2Q background); remark: listed apart in the source
[5] = target: 3-fluorotyrosine labeled A34F variant of the B1 domain of protein G (T2Q background); remark: listed apart in the source
[6] = target: 3-fluorotyrosine labeled A34F variant of the B1 domain of protein G (T2Q background); remark: listed apart in the source
[7] = target: 3-fluorotyrosine labeled A34F variant of the B1 domain of protein G (T2Q background); remark: listed apart in the source
[8] = target: 3-fluorotyrosine labeled A34F variant of the B1 domain of protein G (T2Q background); remark: listed apart in the source
[9] = target: 3-fluorotyrosine labeled A34F variant of the B1 domain of protein G (T2Q background); remark: listed apart in the source
[10] = target: 3-fluorotyrosine labeled A34F variant of the B1 domain of protein G (T2Q background); remark: listed apart in the source

## 3-fluorotyrosine labeled A34F variant of the B1 domain of protein G (T2Q background) (domain or fragment)
[1]
  Kd: 59 µM
[2]
  Kd: 26 µM
[3]
  Kd: 95 µM
[4]
  Kd: 25 µM
[5]
  Kd: 90 µM
[6]
  Kd: 85 µM
[7]
  Kd: 17 µM
[8]
  Kd: 45 µM
[9]
  Kd: 80 µM
[10]
  Kd: 55 µM
